Here are results for 1 substance from article PMC9017566.

A word on the stoichiometry N: it is a count of units in the complex or per binding partner.

The assay deals with hexon protein of recombinant chimpanzee adenovirus C68 (AdC68), free hexon trimer (AEX-HPLC "impurity" peak) (chimpanzee adenovirus C68). As to the kind of experiment: native MS; native SEC-HPLC/MS of the AEX-HPLC "impurity" fraction; BEH SEC 200Å column, isocratic 40 mM ammonium formate, 25°C; Orbitrap EMR, gentle source parameters to keep non-covalent complexes assembled. On the technique in general: SEC sorts molecules by how far they enter the pores of the column.

For the substance “hexon protein of recombinant chimpanzee adenovirus C68 (AdC68), free hexon trimer (AEX-HPLC "impurity" peak) (natural protein)”, the stoichiometry N amounted to 3.
